The data set in a line: label from the status in PepcDB records.
For the sequence “MQEQRQQLLRSLEALIFSSEEPVNLQTLSQITAHKFTPSELQEAVDELNRDYEATGRTFRIHAIAGGYRFLTEPEFADLVRQLLAPVIQRRLSRSMLEVLAVVAWHQPVTKGEIQQIRGASPDYSIDRLLARGLIEVRGRADSPGRPLQYGTTEVFLDLFHLPSLKDLPKLREIKEILQEHEEQQYLAADGDLPVAADEDEKPRMERIE”, the protein production result is “not failed”.
Consider “MTSLSQFEPLFLEFMQQEMQVDAAHDIEHVKRVVKTAKQLCDEENADIAIVLPAAYLHDCFTYPKDHPNRKQSSAIAAKKAIAYLESIQYPQHYHDAIAHAIEAHSFSANIRPNTLEAQIVQDADRLDALGAIGVTRCIQVSTHFNAQLYNDNDMFAKERELNDKQFTVDHFQTKLFKIADTMNTESAKLEANKRKAFMQTYLKQLHDEVTALEHHHHHH”, for which the protein production entry is “not failed”.
With “MMKKLFLDTHSASGEIKLTDGLLYWFPQFLTPIQADQAFQQMLTHLDWQQKSIRLFGKSVLQPRLIAWYGEKGYRYSGLSLSAQPFPPPLLTLKTQCEQAAQAPFNSVLANLYRDGQDSMGWHQDNEPELGSNPVIASLSLGESRRFLLRHHKDHALQVECELNHGDLLIMAGNTQHFWQHAIPKTRQTKQTRINLTFRNILLEHHHHHH”, the protein production result was “not failed”.
Regarding “MGHHHHHHSHMAAAIASSLIRQKRQAREREKSNACKCVSSPSKGKTSCDKNKLNVFSRVKLFGSKKRRRRRPEPQLKGIVTKLYSRQGYHLQLQADGTIDGTKDEDSTYTLFNLIPVGLRVVAIQGVQTKLYLAMNSEGYLYTSELFTPECKFKESVFENYYVTYSSMIYRQQQSGRGWYLGLNKEGEIMKGNHVKKNKPAAHFLPKPLKVAMYKEPSLHDLTEFSRSGSGTPTKSRSVSGVLNGGKSMSHNEST”, the protein production result is on record as “not failed”.
As for “MSRSGQPPDLKKYMDKKLQIKLNANRMVVGTLRGFDQFMNLVVDNTVEVNGDDKTDIGMVVIRGNSIVTVEALEPVGRS”, the protein production result was “failed”.
Regarding “MNRTAMRASQKDFENSMNQVKLLKKDPGNEVKLKLYALYKQATEGPCNMPKPGVFDLINKAKWDAWNALGSLPKEAARQNYVDLVSSLSPSLESSSQVEPGTD”, the protein production result is “not failed”.
As for “AIDHRIQYLAYREIKAAVETNKAKAGSVVVLDAHTGELLALANYPSFNPNNRSGVTPEMMRNRGVIDLFEPGSTMKPLSISLALEHGKANLNTVLDTHSYMIGPATIRDVSPQASLGILGIIQKSSNVGTSKLALLNSPEEFWKHYDALGFGRAPETGFPGEASGRLRDWHKWRPIEQATMSFGYGVSVSLIQMARAYTIFANDGVMLPVALYKTANPMPGKRVLSEKTAHEMRDLLIANSQPGGGAVGGRIIGYSIGGKSGTARKLEGRAYVANKHRALFMGFAPGHSPKVIVAVMIDEPSAGKYYGGAVSAPVFSQVAGGALRVLNIAPD”, the protein production result is on record as “failed”.
As for “MNSDGSDNFELVKKSYGRNFSGISGCAWSPDGSRIAYISSDHNGSDRLVTLNPDGSNEQIVASFAEISALAWAPDSSGMAFNAAYSEDGQTGIYLADLESSEPVFLVRGEIRQQIQSWQSEVWSPDGSRILYSSNENGNSDTNENGNSDIYSVNTDGSEKIQLTDDNSKDYSPCFSPDGSKIIFISDRTGHSSIWIMSSNGDKEEELTEGFEGIHDFSWNPNGQKIAFSSDSNSYIQEIDYSESGDEDSQDDSSSDDSDNDTEVNPEYLHMEILSPDLNFAASQGTPELITVRITNNSGSPVQSSGFKFIKANFSNGDPELQLFDDGTHEDITASDGIFSNQWIPVNTTGLPLTLCILWASADHESLGDAEQIISGTISRKPIPSDLVIENISWSPADPYVNDNITFSITSANRGSGPSEACKVKCYINGNEAYSYSLPELEARSSTSIIFSWIPTAPGNIDVKAVVDEENQVSESVEENNEKSVSFSVKSLTPSTSSGKSGGKSSSSGGGGGGGGSPEPASNVRIKELSQQYITSGKYAKFAFPRNATCVTHVAFNSRRTAGKTTTIVEMLKNKSTRVPDLPAGKIYENVNIWVGNKGTADPENIENAVVGFRVEKSWITLNDVDPASVRLWRLSSGEWEELSIRQSGEDDRYSYFEAQTEGFSHFVITAPSGENETIENALKSSIVPPVRSSAEVMEELFGKLSGKQNADFPVISAMSVNESGSEPEAPSTAGHAADRITGRGIIKVLVVIALLSVTGFLGSLILRKQN”, the protein production result is reported as “failed”.
Take “MTLPQTMKAAVVHAYGAPLRIEEVKVPLPGPGQVLVKIEASGVCHTDLHAAEGDWPVKPPLPFIPGHEGVGYVAAVGSGVTRVKEGDRVGIPWLYTACGCCEHCLTGWETLCESQQNTGYSVNGGYAEYVLADPNYVGILPKNVEFAEIAPILCAGVTVYKGLKQTNARPGQWVAISGIGGLGHVAVQYARAMGLHVAAIDIDDAKLELARKLGASLTVNARQEDPVEVLQRDIGGAHGVLVTAVSNSAFGQAIGMARRGGTIALVGLPPGDFPTPIFDVVLKGLHIAGSIVGTRADLQEALDFAGEGLVKATIHPGKLDDINQILDQMRAGQIEGRIVLEM”: the protein production result is listed as “not failed”.
For “MQRLLLASSLLLALSACSDKSAPANTADAAAPAAAPAATAPATAPELIPRDALFGNPERASVRISPDGKYLSWVAPLDGVLNVWVAPVDAPDKARAITKDTARGIRSYYWTYHSDTLLYLRDTGGDEDFHLYAVNLSDGSSKDLTPFKKTNAEVYGISDQHPDAIMVGMNDRDAKWHDLYKVELASGTRTLVQKNTDSLDSYLLDGNYQLRYATRATDDAGRELLVPEGKGWKSVDRIPFEDVTNTAPAGLTDDGKTLYMLDSRNRDTAALYAIDTASNARTLLFEDARADAGSTLNDPKTGVVQAVSTDYLREEWKTLDTSIAADLQKLKSLGPGDAGIAARTLDDRTWIVAYSAAETPLTYYRYDRADGGKLTKLFSARPALEGKPLVPMWPQEIAARDGLKLVSYLSLPAEADSNHDGKADKAVPLVLFVHGGPWARDSYGYGAYEQWLANRGYAVLSVNFRGSTGFGKAFTNAGNGEWAGKMHYDLLDAVQWAVKQGVTTPQDVAIMGGSYGGYATLVGMTFTPDAFKCGVDIVGPANLNTLLGTVPPYWASFYKQLTKRMGDPATAAGKQWLTERSPLSHVDKISKPLLIGQGANDPRVKQAESDQIVNAMKAKNIPVTYVLFPDEGHGFQRPENSKAFNAVTEGFLSQCLGGRAQPIGADFEGSSITVPEGADRITGLADALKTHTQAIRK”, the protein production entry is recorded as “failed”.
In the case of “MGLVGLHSGTIDMEFIGVEDHGDEEGKQIAVSVISSGKNADKTEDPDSLIFTGFGGTDMYHGQPCNQKLERLNIPLEAAFRKKSIVRVVRCMKDEKRTNGNIYIYDGTYMITNRWEEEGQNGFIVFKFKLVREPDQKPAFGIWKSIQNWRNGLSIRPGLILEDLSNGAENLKVCLVNEVDKENGPALFRYVTSLIHEVINNIPSMVDRCACGRRSCGSKHVFREKLSVSSSLVISAKKSGNVARFMNHSCSPNVFWQSIAREQNGLWCLYIGFFAMKHIPPLTELRYDYGKSRGGGKKMCLCRTKKCCGSFG” it was “failed”.
“MKKLLTFIMACVISLGATAQISEKAFEKWHQNKYSMFIHFGLYSELGGVWEGNPVTRGYSEQIQSFAGIFSDWYGDTALRFNPTLFDADAIVSLAKEAGMRSIIITTKHHDGFCMFRTATTDYNSYDATPGKRDFIKEMAEACKRGGINFGIYFSLIDWHFPQAYPISSHNCDFITPQHHEFTKAQVTELLTNYGPISELWFDMGSNTPEQSKELYQLVHRLQPDCMVSGRLGNDQYDFSVMADNTYPEGSLQTAWQTAASMFDETWSYRSWQKRGDVHTKAMEKLRSLINVVSHGGNFLLNIGPKGDGSVVPFEREVLKEIGIWLKKNGEAIYGTEASPFREQFEWGTITRKGNNLYLILSGNRPADGKITLNVPGCKLQKADIKAIQKGQEMIFTLPADAYGKDIQVICATFDQPVKPQPMAAQRTPNYSYSCFDYYSNYRSTVSYQWSINKSNLNALEFTYTPQENGKELLVEVDGIPYTVTLDAGKAQALNLPSKTVWGQRYFCGPGSGLFDAPATIHTDPDKAPVRKGQWKEVNEEKAMFPSNILESYFLMQQVESPKAQDILVDVGAGNGIEIYLNGKSVMKHLNPYRCKFREEKVLLPLQKGSNQIVVRIYNRFEKETGYLLRPSAEQVIYKQKFTLPQVAKGKVHTVVVKQNNLPSIHKDTELSNLKVEAK”: the protein production entry was “failed”.
Regarding “MEEITEGVNNMNLAVDTQKKNRIQVSNTKKPLFFYVNLAKRYMQQYTDVELSALGMAIATVVTVAEILKNNGFAVEKKIMTSTVDIKDDSRGRPVQKAKIEITLAKSEKFDELMAAANEEKEAAEAQEQN”, the protein production result is “failed”.
Regarding “MGSSHHHHHHSSGRENLYFQGVKSEDQLVHICSREEWRTAEREGSRVPATFRADGFVHLSTPAQVHLPANRLFAGRTDLVLLRLDPTALGAPVKWEPGVPADPASMLFPHLYGPLPVAAVTGVEEYRPDADGTFPARR”, the protein production entry was “not failed”.
“AIADELNSPLGERAQGASLAHVVWSDPQWLERYPLTFENVLTYFSRSPFYDPTCNNELVRMQMHPELQGEMLYYTQREEELLLGMQGVEYVPLCSSDAHELFIIRKQVRRSADEVHVTNLYYILYGQVYEAPAFSTVLLVRLRQSADFLVRSLGLLRQWLSKKEYGEPGATGHGHEDTLLLQLLRKAQQRNRQL”: the protein production result was “failed”.
Regarding “MIKLYSPYAFLSKYLGAILLSFFCYYAKEIGCNNLTLSVWNDNEGALRFYQRQGMKPQETTMEMIID”, the protein production entry is “failed”.
As for “MAAWCSPRWLRVAVGTPRLPAAAGRGVQQPQGGVVAASLCRKLCVSAFGLSMGAHGPRALLTLRPGVRLTGTKSFPFVCTASFHTSASLAKDDYYQILGVPRNASQKDIKKAYYQLAKKYHPDTNKDDPKAKEKFSQLAEAYEVLSDEVKRKQYDAYGSAGFDPGASSSGQGYWRGGPSVDPEELFRKIFGEFSSSPFGDFQNVFDQPQEYIMELTFNQAAKGVNKEFTVNIMDTCERCDGKGNEPGTKVQHCHYCSGSGMETINTGPFVMRSTCRRCGGRGSIITNPCVVCRGAGQAKQKKRVTVPVPAGVEDGQTVRMPVGKREIFVTFRVQKSPVFRRDGADIHSDLFISIAQAILGGTAKAQGLYETINVTIPAGIQTDQKIRLTGKGIPRINSYGYGDHYIHIKIRVPKRLSSRQQNLILSYAEDETDVEGTVNGVTHTSTGGRTMDSSTGSKDRREAGEDNEGFLSKLKKIFTS”, the protein production entry was “failed”.
For “MNSLPIADLLVSAVIAACIVLSAMRGVIAEAGSMAAWVVSFFFAKLFAASFADLAFASFQPRLFALALSFISLFVIACLIQKMLRSLLTSAVSAVGLGFANRILGGVFGALKGVLIVTLLVMLASKTDLPDTEEWRQSYTLPFFVSLSEAVLNHSGGTAETPEDD”, the protein production entry was “failed”.
Regarding “MKLALFDLDHTLLNTDSDHSWGEFLVNEGLVDPVHHRQMNDKFYEDYKAGQLDPIAYNEFVFEFLTQNTPEVLTDLHALFMQKVIRPQMRPKGFDGIKKHQNLGHDIVGITATSDFITAPIFRAFGITEIIATNAEVQDGKYTGKVAGLPCYQKGKLARLDQWLAGRSVEESWAYSDSINDRFLLEYATHAIAVNPDDRLEKLAIDQGWTIEDWSI”, the protein production entry was “failed”.
Turning to “MRIEPRPLPETLPDLGDLPPLLARLYAARGVRCAEELDKGLARLIPYQRLKGIEEGVALLVDALEGGQRILIVGDFDADGATASSVGVLALRMLGAAWVDYLVPNRFEYGYGLTPEIVGVALEKRPDLLVTVDNGISSVDGVQAAKAAGLKVLVTDHHLPGPELPAADAIINPNQPGCEFPSKA”, the protein production entry is recorded as “failed”.
Regarding “DMAFQLRTERLDLNMWEESDAVWLRELIGERGVEMPTVESVRNDLIEKRKIAVENGISLLTIRRRDEGDFIGYCGLIIGRSTLEEPEIAYELFRSAHRMGYATEAASAVLEAAIATGRKRLWSTVGAWNTASFRVLEKIGFKR”, the protein production result is “failed”.

The values above are taken from a protein production outcome set (Wang et al. 2014).
